In one test the test system is aged mice. Put plainly: Age-related hearing loss in aged mice. The format is in vivo, mouse. The following applies: for ABR threshold vs control animals: 30 mg/kg i.v. weekly for eight weeks. As to the method: FIGS. 17A, 17B, 17C, and 17D show the therapeutic effect of FAM19A5 antagonists (1-30) on auditory brainstem response (ABR) threshold in an aged mouse model. FIG. 17A provides a schematic of the experimental design. As shown, anti-FAM19A5 antibody (1-30) or control human IgG antibody was administered to the mice (1-year old) intravenously once a week (30 mg/kg per dose) for a total of eight administrations. ABR (i.e., hearing test) was measured both prior to the initial administration of the antibodies and then at one and two months after administration. FIG. 17B provides the results before injection. FIG. 17C provides the results at one month post administration. FIG. 17D provides the results at two months post administration. In each of FIGS. 16B-16D, ABR threshold was measured at a frequency ranging from 4 kHz to 64 kHz.
FIGS. 18A, 18B, and 18C show the therapeutic effect of FAM19A5 antagonists (1-30) as comparison of wave I amplitude profile in an aged mouse model. The mice were treated as shown and described in FIG. 17A. FIG. 18A provides the results before injection. FIG. 18B provides the results at one month post injection. FIG. 18C provides the results at two months post injection. Tone bursts were measured across 0 and 90 dB.
Next, to assess whether the FAM19A5 antagonists provided herein can also treat age-related hearing loss, aged mice (e.g., about 6 months to 1 year in age) were used. […] Then, various hearing parameters (e.g., ABR threshold, DPOAE amplitude, and ABR waveform analysis) were assessed in the animals at one and two months after initial administration.

The target in test [1] is T1, FAM19A5 mutants M1 to M8 (Homo sapiens, UniProt Q7Z5A7).
T1 construct: made in house; host or cells: phage display with helper phage
Put plainly: Epitope mapping ELISA with FAM19A5 mutants M1-M8. The format is binding. (An ELISA detects its analyte on a solid surface through an enzyme-linked reagent.)

Test [2] has as its target T2, FAM19A5 mutants M1 to M8 (Homo sapiens, UniProt Q7Z5A7, A66V/A69S/K72P/R67K/R71F).
T2 construct: made in house; host or cells: phage display with helper phage
Put plainly: Epitope mapping ELISA with FAM19A5 mutants M1-M8. The format is binding.

Test [3] has as its system FAM19A5 mutants M1 to M8. Put plainly: Epitope mapping ELISA with FAM19A5 mutants M1-M8. It is filed as binding.
For a further test, the target named is FAM19A5 antigen (Homo sapiens, UniProt Q7Z5A7). Put plainly: Cross-competition two-site sandwich ELISA. The format is binding. The following applies: antibodies 1-65, P2-A03, P2-F11, 13B4, 2-13, 3-2; cross-competition = S/N ratio lower than 2. As to the method: The term “S/N” refers to the signal to noise ratio, which is measured as follows: [O.D. of 10 ng/ml antigen]/[O.D. of 0 ng/ml antigen].
Next, a two-site sandwich ELISA was used as described below to assess whether the different anti-FAM19A5 antibodies with similar binding epitopes cross-compete with each other.
First, the indicated anti-FAM19A5 antibodies were diluted in 1×PBS to a concentration of 10 μg/mL. The diluted anti-FAM19A5 antibodies (10 μg/mL in 1×PBS) (“capture antibody”) were used to coat the 96-well plates (100 μL/well) at 37° C. for approximately 1 hour. After the incubation, the plates were washed with the washing buffer (0.01% Tween-20/PBS; also called 0.01% PBST) for a total of five washes, blocked with the blocking solution (5% BSA/PBS; also called 5% PBSA) (250 μL/well) for one hour at 37° C., and then washed again. Next, 100 μg/mL of the FAM19A5 antigen (diluted in PBS containing 5% BSA, 0.01% Tween-20; also called 5% PBSAT; “diluent buffer) was added to each of the wells, and the 96-well plates were incubated for 2 hours at 37° C. After the incubations, the plates were washed using 0.01% PBST for a total of five washes. After the final wash, the indicated biotinylated anti-FAM19A5 antibodies (“detection antibody”) (diluted to lug/mL in 5% PBSAT) were added to the relevant wells (100 μL volume) and the plates were incubated for an additional 1 hour at 37° C. Afterwards, the plates were washed again with 0.01% PBST (five total washes). Next, 100 μL of the diluted (1/2000 in 5% PBSAT) Streptavidin-HRP (1 mg/mL, Sigma, USA) was added to the wells, and the plates were incubated for 30 minutes at room temperature. The plates were then washed and treated with 100 μL of the TMB substrate ([…], Thermo Fisher Scientific). After an additional 30-minute incubation at room temperature, the color change reaction was induced by the addition of the TMB substrate. This reaction was stopped using 50 μL of sulfuric acid (2N H2SO4), and the extent of color change was detected via absorption at 450 nm with reference wavelength at 620 nm using a 96 well microplate reader (Molecular Device).

T2 sequence (Q7Z5A7 26-125 isoform Q7Z5A7-2 A59V/R60K/A62S/R64F/K65P): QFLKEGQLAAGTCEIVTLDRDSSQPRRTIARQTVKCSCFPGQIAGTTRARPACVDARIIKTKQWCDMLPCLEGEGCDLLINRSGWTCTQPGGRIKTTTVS
FAM19A5 antigen, sequence (Q7Z5A7 44-132): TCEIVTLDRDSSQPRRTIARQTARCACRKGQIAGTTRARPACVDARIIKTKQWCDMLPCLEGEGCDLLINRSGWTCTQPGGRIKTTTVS
T1 sequence (Q7Z5A7 with tags, fused parts or gaps isoform Q7Z5A7-2, change not shown): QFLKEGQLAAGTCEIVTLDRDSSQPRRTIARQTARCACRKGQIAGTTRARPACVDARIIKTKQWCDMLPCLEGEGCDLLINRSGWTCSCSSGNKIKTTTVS

B1: 1-30: anti-FAM19A5 antibody, de-immunized variant of 3-2; VH SEQ ID NO: 235, VL SEQ ID NO: 240 (antibody, V domains shown)
VH: AVTLDESGGGLQTPGGALRLSCKASGFDFESFNMFWVRQAPGKGLEYVSQISSSEEDENYAPAVKGRATISRDNGQSTLYLQMNSLRAEDTGTYYCAKSSYDCPYGHCSSGVDSAGEIDAWGHGTEVIVSS
VL: ALTQPSSVSANPGETVKITCSGGGSEEEQYYYGWYQQKPGSAPVTLIYQDEERPSDIPSRFSGSTSGSTATLTITGVQAGDEADYYCGSWDSEDEDHFGAGTTLTVL
modifications: Low-PI VH, 1-30 VH, 1-17 VH, 1-32 VH, 4-11 VH, 6-10 VH; 1-30 VL
Take B1: in the test with aged mice (general trend, results not statistically significant), the “wave I amplitude vs control animals” value is reported as “decreased wave I amplitude”. The “ABR threshold vs control animals” value with aged mice (one-month post administration) and with aged mice (two-month post administration) was “significantly decreased” throughout.

B2: 2-13: anti-FAM19A5 antibody; VH SEQ ID NO: 35, VL SEQ ID NO: 39 (antibody, V domains shown)
VH: AVTLDESGGGLQTPGGALSLVCKASGFTFSSHGMFWVRQTPGKGLEYVAEITNDGSGTNYGSAVKGRATISRDNGQSTVRLQLNNLRAEDTGTYFCARSTYECPGGFSCWGDTGQIDAWGHGTEVIVSS
VL: ALTQPSSVSANPGETVKITCSGGSYSYGWFQQKSPGSALVTVIYWDDERPSDIPSRFSGALSGSTNTLTITGVQADDEAVYFCGTEDISGTAGVFGAGTTLTVL
modifications: 2-13 VH; 2-13 VL
As to B2, in the test with FAM19A5 mutants M1 to M8 [1], the “binding to FAM19A5 mutant M8” value was “failed to bind”. The “binding to FAM19A5 mutant M4” value in the test with FAM19A5 mutants M1 to M8 [2] is “failed to bind”. The “binding to FAM19A5 mutants M1-M3 and M5-M7” value with FAM19A5 mutants M1 to M8 [3] is reported as “moderate to high binding”. The “cross-competition with the other anti-FAM19A5 antibodies” value with FAM19A5 antigen is “did not cross-compete”.

The values above are taken from patent US20260265360A1, “USE OF ANTI-FAM19A5 ANTAGONISTS FOR TREATING HEARING DISORDERS” (NEURACLE SCIENCE CO., LTD., priority 2023, published 2026).
